Measured values from US20070258992A1.

Target: mouse synaptosomes

Substance: active botulinum neurotoxin A (from UniProt P0DPI0 2-1296)
- maximum inhibition: 78%
